We go through 4 molecules from patent US20190040142A1 (Genentech, published 2019).

The experiment addresses human KLB/FGFR1c receptor complex on cells (human, UniProt Q86Z14 53-1044; P11362 22-822). As to the kind of experiment: cell-based or functional assay.

B1: bispecific anti-KLB antibody 23B3/28B7 (IgG format) (bispecific antibody, V domains shown)
VH 1: EVQLQESGPGLVKPSQSLSLTCSVTGYSITSGYYWNWIRQFPGNKLEWMGYIRYDGNSNYNPFLKNRVSITRDTSKNQFFLKLNSVTTEDTATYYCTRKGAYYSSFDALDYWGQGTSVTVSS
VL 1: DIVMTQSPSSMYASLGERVTISCKASQDIRSYLSWFQQKPGKSPKTLIYRANRLVDGVPSRFSGSGSGQDYSLTITSLEFGDVGLYYCLQYDEFPLTFGAGTKLKIE
VH 2: EVQLQQSGPELVQPGTSVKISCEASGYTFTDYYINWVKQSRGKSLEWIGDINPNNGDTTYNQKFKAKATLTVDRSSNTAYMELRSLTSEDSVVYYCARRFYSSPFDSWGQGTTLTVSS
VL 2: DIVMTQSPSSLAVSVGEKVTLSCKSGQSLLYSRNQKNYLAWYQQKPGQSPKLLISWASTRESGVPDRFTGSGSGTDFTLTISSVKTEDLAVYHCQQYYSYPYTFGGGTRLEIK
With B1, the “EC50 (nM), luciferase-based reporter assay” value (“EC50 (nM)” below) worked out at 0.63 nM.

B2: bispecific anti-KLB antibody 12B8/2C12 (IgG format) (bispecific antibody, V domains shown)
VH 1: QIQLVQSGPELKKPGETAKISCKASGYAFSNYGMNWVKQAPGKDLKWMGWIDTDTGEATYTDDFKGRFVFSLETSASTAYLQINNLKNEDMATYFCAREEYGLFGFPYWGHGTLVTVSA
VL 1: DIQMTQSSSSFSVSLGDRVTITCKASEDIYNRLAWYQQKPGSAPRLLISAATSLETGVPSRFSGSGSGKDYTLSITSLQTEDVATYYCQQYWSNPLTFGAGTKLELK
VH 2: EVQLQQSGPGLVKPSQSLSLTCSVTGYSITSGYYWTWIRQFPGNKLEWMGYIKYDGGNYYNPSLRNRISITRDTSKNHFFLKFYSVTAEDTATYFCARGDYYASPYGAMDSWGQGTSVTVSS
VL 2: DIVMTQSPSSLSASLGDTITITCHASQDIDVWLSWYQQKPGNVPQLLISKSSILHTGVPSRFSGGGSGTGFTLTISSLQPEDIATYYCQQGLSYPFTFGSGTKLKIK
For B2, the “EC50 (nM)” value amounted to 1.36 nM.

B3: bispecific anti-KLB antibody 12B8/23B3 (IgG format) (bispecific antibody, V domains shown)
VH 1: QIQLVQSGPELKKPGETAKISCKASGYAFSNYGMNWVKQAPGKDLKWMGWIDTDTGEATYTDDFKGRFVFSLETSASTAYLQINNLKNEDMATYFCAREEYGLFGFPYWGHGTLVTVSA
VL 1: DIQMTQSSSSFSVSLGDRVTITCKASEDIYNRLAWYQQKPGSAPRLLISAATSLETGVPSRFSGSGSGKDYTLSITSLQTEDVATYYCQQYWSNPLTFGAGTKLELK
VH 2: EVQLQESGPGLVKPSQSLSLTCSVTGYSITSGYYWNWIRQFPGNKLEWMGYIRYDGNSNYNPFLKNRVSITRDTSKNQFFLKLNSVTTEDTATYYCTRKGAYYSSFDALDYWGQGTSVTVSS
VL 2: DIVMTQSPSSMYASLGERVTISCKASQDIRSYLSWFQQKPGKSPKTLIYRANRLVDGVPSRFSGSGSGQDYSLTITSLEFGDVGLYYCLQYDEFPLTFGAGTKLKIE
With B3, the “EC50 (nM)” value turned out to be 0.95 nM.

B4: bispecific anti-KLB antibody 2C12/28B7 (IgG format) (bispecific antibody, V domains shown)
VH 1: EVQLQQSGPGLVKPSQSLSLTCSVTGYSITSGYYWTWIRQFPGNKLEWMGYIKYDGGNYYNPSLRNRISITRDTSKNHFFLKFYSVTAEDTATYFCARGDYYASPYGAMDSWGQGTSVTVSS
VL 1: DIVMTQSPSSLSASLGDTITITCHASQDIDVWLSWYQQKPGNVPQLLISKSSILHTGVPSRFSGGGSGTGFTLTISSLQPEDIATYYCQQGLSYPFTFGSGTKLKIK
VH 2: EVQLQQSGPELVQPGTSVKISCEASGYTFTDYYINWVKQSRGKSLEWIGDINPNNGDTTYNQKFKAKATLTVDRSSNTAYMELRSLTSEDSVVYYCARRFYSSPFDSWGQGTTLTVSS
VL 2: DIVMTQSPSSLAVSVGEKVTLSCKSGQSLLYSRNQKNYLAWYQQKPGQSPKLLISWASTRESGVPDRFTGSGSGTDFTLTISSVKTEDLAVYHCQQYYSYPYTFGGGTRLEIK
On to B4, for which the “EC50 (nM)” value is 0.58 nM.
